The source of these data is the supplement of paper PMC9170038.

For series [1], the system named is MS2 coat protein. The series can be described thus: apparent KD of MS2 coat protein, switch ON state; designed switch direction (-1 OFF switch, 1 ON switch): -1; higher = weaker reporter binding. The following applies: FMN input: 0 or 200 uM; Eterna round: R93 (includes R88 designs). The procedure, abridged: (§1)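 Designed RNA switches were transcribed on-chip from Illumina sequencing clusters. They were then titrated with SNAP-549-labelled MS2 coat protein (twofold steps, 0.7 or 1.5 nM to 3 µM; 0.8–1.5 h to 10–20 min per step) in 100 mM Tris-HCl pH 7.5, 80 mM KCl, 4 mM MgCl2, without or with constant ligand. Apparent KD is the per-design median of normalised cluster binding-curve fits.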

Series [2] relates to MS2 coat protein. The series can be described thus: apparent KD of MS2 coat protein, switch OFF state (with FMN for OFF switches, without FMN for ON switches); designed switch direction (-1 OFF switch, 1 ON switch): -1; higher = weaker reporter binding. The following applies: FMN input: 0 or 200 uM; Eterna round: R93 (includes R88 designs). In a few lines: as §1

“AGUCGGCGAGGAUAUACAUGAGGAUCACCCAUGUGAGAGAAAAAAGUGAGCAAGAAAUGUAGAAGGCGCUGACA [JL Lego Mod 3]”: the “apparent KD of MS2 coat protein” value in the series with MS2 coat protein [1] is 0.156 µM; in the series with MS2 coat protein [2] it was 0.0619 µM.
For “AGUCGGCGAGGAUAUACAUGAGGAUCACCCAUGUGAGAGAAAAAGGUGAGUCAGAAAAGUAGAAGGCGCUGACA [JL Lego Mod 5]”, the “apparent KD of MS2 coat protein” value with MS2 coat protein [1] is 0.166 µM; in the series with MS2 coat protein [2] it was 0.0474 µM.
For “AGUCGGCGAGGAUAUACAUGAGGAUCACCCAUGUGAGAGAAUAAAGUGAGUUAGACAAGUAGAAGGCGCUGACA [JL Lego Mod 10]”, the “apparent KD of MS2 coat protein” value in the series with MS2 coat protein [1] stood at 0.0405 µM; with MS2 coat protein [2] it was 0.226 µM.
Taken in the same sequence, the figures for “AGUCUGAGAGGAUAUACAUGGAAAAAAAAAGUUAGAUCCCUACAUGAGGAUCACCCAUGUAGAAGGCUCUGACA [Ex2 Design 149: Sub-opt 13]” were 0.0458 µM and 0.0152 µM.
Taken in the same sequence, the figures for “AGUUGGCGAGGAUAUACAUGAGGAUCACCCAUGUAAAAUAAAUAAAAAAUAAGGGAAAGUAGAAGGCGCUGACA [73%, Moding Norbert Elias, 14]” were 0.0465 µM and 0.112 µM.
As to “AGUUGGCGAGGAUAUACAUGAGGAUCACCCAUGUGAGAGAAAUAAGUGAGAAAGAAAAGUAGAAGGCGCUCACA [JL Lego Mod 17]”, the “apparent KD of MS2 coat protein” value worked out at 0.068 µM in the series on MS2 coat protein [1] and 0.0474 µM with MS2 coat protein [2].
On to “AUAAACAGAGGAUAUACACAAAAUAAAGAAAAUAAAGAAACACAUGAGGAUCACCCAUGUAGAAGGCUGGAAAA”, for which the results for the “apparent KD of MS2 coat protein” value in the series with MS2 coat protein [1] and in the series with MS2 coat protein [2] were 0.0233 µM and 0.0227 µM, respectively.
In the case of “AUCUUGUCAGGAUAUGACUACAUAAAAAAAAAAAAAUGUAGUCAGAAGGGACAUGAGGAUCACCCAUGUACCAA [HSL_Exclusion 4 64% 2]”, the “apparent KD of MS2 coat protein” value with MS2 coat protein [1] was determined as 0.0291 µM; with MS2 coat protein [2], 0.0241 µM.
For “AUGGUACAUGAGGAUCACCCAUGUCAGGAUAUCGGCUGUGACAUGAAAAAAAUGUUAGUGAGAAGGGACUGUAA [EX1 Malc#18 Mod 4 - Jieux - Exclusion 1]” the same measures were 0.0854 µM and 0.102 µM.
Taken in the same sequence, the figures for “CAACAGUCAGGAUAUGCAAAAAAAACGCAACGCAAAAAAAAGCAGAAGGGACAUGAGGAUCACCCAUGUUGUCG [Exclusion4-03]” were 0.0295 µM and 0.0229 µM.
For “CAAGGUGGAGGAUAUACAUGAGGAUCACCCAUGUAAGGACAAUAAAUAAGAUGAAGAAGUAGAAGGCCACUCAA [e3-3]” the same measures were 0.0415 µM and 0.0421 µM.
For the sequence “CACGGGUUAGGAUAUGCAUGGUGAAAAGACGCGAUCCUUAGACAUGAGGAUCACCCAUGUAGAAGGAACGCGAU [Reonisar]”, the “apparent KD of MS2 coat protein” value with MS2 coat protein [1] amounted to 0.0172 µM; with MS2 coat protein [2] it was 0.015 µM.
For “CAGUACUGAGGAUAUACAUGAGGAUCACCCAUGUGGUCCAGCUAGGAAACUAGCACGUGUAGAAGGCAGUACUG [Ex3: 840]” the same measures were 0.0295 µM and 0.02 µM.
“CCGAGACAUGAGGAUCACCCAUGUGAGGAUAUAGGUGUAUGCUAAAAAAAGUUAACAACUAGAAGGCACAGAGG [JR_Exc001_Sub308]”: the “apparent KD of MS2 coat protein” value was 0.0557 µM in the series with MS2 coat protein [1] and 0.129 µM in the series with MS2 coat protein [2].
For “CUCAAGUAAGGAUAUCCAAGAAAAGAAGAGAAAGAAAAGAAGGAGAAGGUACAUGAGGAUCACCCAUGUAAGAA [EteRNA is fun!]” the same measures were 0.0287 µM and 0.0237 µM.
Taken in the same sequence, the figures for “CUCAAGUGAGGAUAUCAGUAGUAAAAAAAUAAAAUUACUACUGAGAAGGCACAUGAGGAUCACCCAUGUUCCAA [EX4 342: Super Stable 42]” were 0.124 µM and 0.181 µM.
“CUCAUGUCAGGAUAUAGCCACAUGAGGAUCACCCAUGUGGACUAGAAGGGACAUGAGGAUCACCCAUGUAUGAA”: the figures for the “apparent KD of MS2 coat protein” value with MS2 coat protein [1] and with MS2 coat protein [2] were 0.011 µM and 0.0113 µM, respectively.
For “CUCUAGUCAGGAUAUCCAAGAAAAGAAGAGAAAGAAAAGAAGGAGAAGGGACAUGAGGAUCACCCAUGUAAGAA [EteRNA is fun!]” the same measures were 0.0759 µM and 0.0464 µM.
Taken in the same sequence, the figures for “CUCUUGUAAGGAUAUGACUACAUAAAAAAAAAAAAAUGUAGUCAGAAGGUACAUGAGGAUCACCCAUGUACUAA [Brourd - Exclusion 4 - Sub 2]” were 0.0208 µM and 0.0262 µM.
Taken in the same sequence, the figures for “CUCUUGUGAGGAUAUGAAAGAAAAGAAAAGAAAGAAAAGAAUCAGAAGGCACAUGAGGAUCACCCAUGUAAGAA [EteRNA is fun!]” were 0.037 µM and 0.0797 µM.
For “CUCUUGUGAGGAUAUGCAAGAAAAGAAAAGAAAGAAAAGAAGCAGAAGGCACAUGAGGAUCACCCAUGUAAGAA [EteRNA is fun!]”, the “apparent KD of MS2 coat protein” value with MS2 coat protein [1] was 0.0533 µM; in the series with MS2 coat protein [2] it was 0.0259 µM.
Regarding “GAAAAACAUGAGGAUCACCCAUGUAAGGAUAUGCUGAAAAACACGGAAAAAACGUGCAGCAGAAGGUACAAAAA [Mat - Exclusion 1 - Eli mod - D92]”, the “apparent KD of MS2 coat protein” value is 0.0158 µM in the series with MS2 coat protein [1] and 0.0281 µM with MS2 coat protein [2].
For “GAAAAACAUGAGGAUCACCCAUGUCAGGAUAUACAAAAAUAAAUAAAAAUAAAAUAAAGUAGAAGGGACAAAAG [Mat - Same state - Mayanna Mod - D110]” the same measures were 0.0529 µM and 0.0573 µM.
For the sequence “GAAAAGAGAGGAUAUACUUUGGGAAAAGAAAAGAUGAUGUUACAUGAGGAUCACCCAUGUAGAAGGCUCAAAAA [Mat - Exclusion 2 - Mod - D156]”, the results for the “apparent KD of MS2 coat protein” value in the series on MS2 coat protein [1] and in the series on MS2 coat protein [2] were 0.0271 µM and 0.0446 µM, respectively.
With “GAAAAGGUAGGAUAUACGAAAAAAAAGGGUAGAAAAAAAACACAUGAGGAUCACCCAUGUAGAAGGACCAAAAG [Mat - Exclusion 2 - Tesla mod - D30]”, the “apparent KD of MS2 coat protein” value with MS2 coat protein [1] was 0.0266 µM; in the series with MS2 coat protein [2] it was 0.602 µM.
Taken in the same sequence, the figures for “GAAAAGUCAGGAUAUGUGGAAAAAAUAAAAAAAAUAAAAACACAGAAGGGACAUGAGGAUCACCCAUGUAAAAG [Mat - Exclusion 4 - Mayanna - D141]” were 0.101 µM and 0.0622 µM.
Taken in the same sequence, the figures for “GAAAAGUCAGGAUAUGUGGAAAAAAUAAAAAAAAUAAAAACACAGAAGGGACAUGAGGAUCACCCAUGUUAAAA [Mat - Exclusion 4 - Mayanna - D137]” were 0.0524 µM and 0.0288 µM.
In the case of “GAAAAGUGAGGAUAUUCGGAUAGGAAAACGAAAACCUAUCCGAAGAAGGCACAUGAGGAUCACCCAUGUGGAAA [Mat - Exaclusion 4 - Eli mod - D45]”, the “apparent KD of MS2 coat protein” value with MS2 coat protein [1] amounted to 0.0301 µM; with MS2 coat protein [2] it was 0.0315 µM.
As for “GAAAAUCGAGGAUAUACAUGAGGAUCACCCAUGUCAAAAAAUGACUACACAAAAGAAAGUAGAAGGCGAUAAAG [Mat - Exclusion 3 - Mayanna mod - D130]”, the “apparent KD of MS2 coat protein” value in the series on MS2 coat protein [1] was determined as 0.0288 µM; with MS2 coat protein [2], 0.0312 µM.
On to “GAAAGGGCAGGAUAUGCGGAGAGAGAGAGAGAGAGAGAGAGACAUGAGGAUCACCCAUGUAGAAGGGCCGAAAG [salish99-ex2-08]”, for which the “apparent KD of MS2 coat protein” value was found to be 0.0369 µM with MS2 coat protein [1] and 0.0386 µM in the series with MS2 coat protein [2].
For “GAAGAACAUGAGGAUCACCCAUGUCAGGAUAUACAGAAGGGAAUAAUAUAAUCUGGAAGUAGAAGGGACAAGAA [Ex 1 May 45]” the same measures were 0.0318 µM and 0.0514 µM.
Taken in the same sequence, the figures for “GAAGAACAUGAGGAUCACCCAUGUCAGGAUAUGAGCAAGGGAAUAAUAACUUGCGGAAUCAGAAGGGACAAGAA [Ex 1 May 51]” were 0.0317 µM and 0.0436 µM.
In the case of “GACACCGGAGGAUAUACAAGUCCUUACUGUCUAAAACCAUGACAUGAGGAUCACCCAUGUAGAAGGCCGAAAAG [Atbela]”, the “apparent KD of MS2 coat protein” value worked out at 0.0633 µM in the series on MS2 coat protein [1] and 0.118 µM with MS2 coat protein [2].
Taken in the same sequence, the figures for “GCAAAGUGAGGAUAUACGCGAACAAAAAAAAAAAAGAAAGCGUAGAAGGCACAUGAGGAUCACCCAUGUCCAGC [Alfred 64% 2]” were 0.0235 µM and 0.0251 µM.
“GCUGGCCAAGGAUAUACAUGAGGAUCACCCAUGUGAGAGAAAAAAGUGAGAAAGAAAAGUAGAAGGUGGUUAGG [salish99-ex3-114]”: the results for the “apparent KD of MS2 coat protein” value in the series with MS2 coat protein [1] and in the series with MS2 coat protein [2] were 0.0439 µM and 0.041 µM, respectively.
Turning to “GCUGGGCAAGGAUAUACAUGAGGAUCACCCAUGUGAGAGAAAAAAGUGAGAAAGAAAAGUAGAAGGUGCUUAGG [salish99-ex3-119]”, the “apparent KD of MS2 coat protein” value in the series with MS2 coat protein [1] amounted to 0.0458 µM; with MS2 coat protein [2] it was 0.0779 µM.
On to “GCUGUGGUAGGAUAUACAUGAGGAUCACCCAUGUGAGAGAAAAAAGUGAGAAAGAAAAGUAGAAGGACCGUAGG [salish99-ex3-101]”, for which the results for the “apparent KD of MS2 coat protein” value in the series on MS2 coat protein [1] and in the series with MS2 coat protein [2] were 0.049 µM and 0.0789 µM, respectively.
Taken in the same sequence, the figures for “GCUUGUCUAGGAUAUACAUGAGGAUCACCCAUGUGAGAGAAAAAAGUGAGAAAGAAAAGUAGAAGGAGGUGAGG [salish99-ex3-81]” were 0.0284 µM and 0.0297 µM.
Taken in the same sequence, the figures for “GGAAAACAUGAGGAUCACCCAUGUGAGGAUAUCGAUGUCCAAAAAAGAGUGCGGGACUCGAGAAGGCACUUGGA [salish99-ex1-43]” were 0.0493 µM and 0.0325 µM.
In the case of “GGAACACAUGAGGAUCACCCAUGUCAGGAUAUGUAGAUAAAAAGAAAAUAAAAUAAAAGCAGAAGGGACAAAAG [May 4]”, the “apparent KD of MS2 coat protein” value with MS2 coat protein [1] is 0.0602 µM; in the series with MS2 coat protein [2], 0.0445 µM.
